Changes are numbered by the printed parent chain. Read-outs that look alike come from different tables or passages of the source. Values belong to the binder of their own block, whether it stands above or below them.
Assays:
[1] = molecular target: T1, recombinant human CTLA4-Fc (Sino Biological, 11159-H03H) (human, UniProt P16410 36-162); assay: ELISA, Fab captured
T1 construct: bought; also called human CTLA4 fused with human FC fragment
T1 sequence (looked up): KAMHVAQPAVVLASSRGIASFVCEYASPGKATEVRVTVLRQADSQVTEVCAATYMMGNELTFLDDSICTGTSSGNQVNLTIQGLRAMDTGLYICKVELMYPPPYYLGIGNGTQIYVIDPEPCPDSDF

[2] = molecular target: mouse CTLA4 fused with human FC fragment (mouse, UniProt P09793 36-162, limits assumed); assay: ELISA, Fab captured
[3] = molecular target: T1, recombinant human CTLA4-Fc (Sino …); assay: ELISA, CTLA4-Fc coated, batch 1
Description: (§1) Plates were blocked with PBS supplemented with 3% non-fat milk at 37° C. for 1 hour. After washing, 100 μL, of 3-fold serial dilutions of antibodies were added to each well. After incubation at 37° C. for 1 hour, plates were washed four times, and 100 μL HRP conjugated anti-human IgG (Fab specific) (1:6000 dilution) was added to each well. Plates were incubated at 37° C. for 1 hour, washed four times, and then 50 μL TMB substrate solution was added to each well, and the plate was incubated at room temperature. […] The EC50 was evaluated by fitting the ELISA data using the asymmetrical sigmoidal (five-parameter logistic equation) model of GraphPad Prism 6 software.

[4] = molecular target: T1, recombinant human CTLA4-Fc (Sino …); assay: ELISA, CTLA4-Fc coated, batch 2
Description: as §1

[5] = molecular target: T1, recombinant human CTLA4-Fc (Sino …); assay: ELISA; EC50 over EC50 of TY21580
Description: as §1

[6] = molecular target: T1, recombinant human CTLA4-Fc (Sino …); assay: ELISA; EC50 over EC50 of TY21580; remark: listed apart in the source
Description: as §1

[7] = molecular target: T1, recombinant human CTLA4-Fc (Sino …); assay: ELISA; EC50 over EC50 of TY21580; remark: listed apart in the source
Description: Plates were incubated at 37° C. for 1 hour, washed four times, and then 50 μL TMB substrate solution was added to each well, and the plate was incubated at room temperature. […] The EC50 was evaluated by fitting the ELISA data using the asymmetrical sigmoidal (five-parameter logistic equation) model of GraphPad Prism 6 software.
The purified activatable antibodies were treated with the proteases which recognize the cleavage sequences, and were then tested to determine whether removal of the masking peptide restored their activity. […] The masking efficiency was then measured by ELISA as described above.

[8] = molecular target: T1, recombinant human CTLA4-Fc (Sino …); assay: ELISA; EC50 over EC50 of TY21580; remark: listed apart in the source
Description: as §1

B4: TY22775 (antibody, V domains shown)
VH: EVQLVESGGGLVQPGGSLRLSCAASGYSISSGYHWSWIRQAPGKGLEWLARIDWDDDKYYSTSLKSRLTISRDNSKNTLYLQLNSLRAEDTAVYYCARSYVYFDYWGQGTLVTVSS
VL: EVGHSDCDAFYPYCDSSGRSAGGGGTPLGLAGSGGSDIQLTQSPSSLSASVGDRVTITCRASQSVRGRFLAWYQQKPGKAPKLLIYDASNRATGIPSRFSGSGSGTDFTLTISSLQPEDFATYYCQQSSSWPPTFGQGTKVEIKR
- Masking efficiency [5]: 168 fold

B6: TY22402 (antibody, IgG1, V domains shown)
VH: B4 VH
VL: EVGSYIVHHSDCDAFYPYCDSSGRSAGGGGSPLGLAGSGGSDIQLTQSPSSLSASVGDRVTITCRASQSVRGRFLAWYQQKPGKAPKLLIYDASNRATGIPSRFSGSGSGTDFTLTISSLQPEDFATYYCQQSSSWPPTFGQGTKVEIKR
notes: also called B13180 (peptide name)
- LogEC50 [3]: -6.32
- LogEC50 [4]: -6.9
- Masking efficiency [5]: 243 fold
- Masking efficiency [6]: 554 fold

B8: TY22564 (antibody, IgG1, V domains shown)
VH: B4 VH
VL: B6 VL with I6Y, V7S, H8A, H9Y, S10P, D11A, A14S, F15H, D20N, S22A
- LogEC50 [4]: -7.41

B9: TY22404 (antibody, IgG1, V domains shown)
VH: B4 VH
VL: EVGSYPNPSSDCVPYYYACAYSGRSAGGGGSPLGLAGSGGSDIQLTQSPSSLSASVGDRVTITCRASQSVRGRFLAWYQQKPGKAPKLLIYDASNRATGIPSRFSGSGSGTDFTLTISSLQPEDFATYYCQQSSSWPPTFGQGTKVEIKR
notes: also called B13197 (peptide name)
- LogEC50 [3]: -6.75
- LogEC50 [4]: -6.89
- Masking efficiency [5]: 308 fold
- Masking efficiency [7]: 216 fold
- Masking efficiency [6]: 572 fold
- Masking efficiency [8]: 469 fold

B12: B15709 (Fab, V domains shown)
VH: EVQLVESGGGLVQPGGSLRLSCAASGFTFSDYAIHWVRQAPGKGLEWIGIISPSSGSTNYAQKFQGRVTISRDNSKNTLYLQLNSLRAEDTAVYYCARDIHSGSSGYYYGFDVWGQGTLVTVSS
VL: DIQLTQSPSSLSASVGDRVTITCRASESVDFFGISFLAWYQQKPGKAPKLLIYDASNRATGIPSRFSGSGSGTDFTLTISSLQPEDFATYYCQHYTSSPPVYTFGQGTKVEIKR
- binding result [1]: binds
- binding result [2]: binds

The remaining lines, values ahead:

- binding result [1]: binds
- binding result [2]: binds
B1: B15736 (Fab, V domains shown)
VH: EVQLVESGGGLVQPGGSLRLSCAASGFTFSDYAIHWVRQAPGKGLEWIGIISPSGGSTKYAQKFQGRVTISRDNSKNTLYLQLNSLRAEDTAVYYCARLGYGYFDVWGQGTLVTVSS
VL: DIQLTQSPSSLSASVGDRVTITCRASQSVDFYGISFLHWYQQKPGKAPKLLIYDASSLESGVPSRFSGSGSGTDFTLTISSLQPEDFATYYCVQALQLPLTFGQGTKVEIKR

- LogEC50 [3]: -7.62
- LogEC50 [4]: -7.8
B2: TY22401 (antibody, V domains shown)
VH: B4 VH
VL: EVGSYNFVADSCPDHPYPCSASGRSAGGGGSPLGLAGSGGSDIQLTQSPSSLSASVGDRVTITCRASQSVRGRFLAWYQQKPGKAPKLLIYDASNRATGIPSRFSGSGSGTDFTLTISSLQPEDFATYYCQQSSSWPPTFGQGTKVEIKR
notes: peptide fused to the N-terminus of the light chain; also called B13189 (peptide name)

- LogEC50 [4]: -6.79
- Masking efficiency [5]: 489 fold
B3: TY22566 (antibody, IgG1, V domains shown)
VH: B4 VH
VL: B9 VL with S9A

- LogEC50 [4]: -6.68
B5: TY22565 (antibody, IgG1, V domains shown)
VH: B4 VH
VL: B9 VL with N7Q

- Masking efficiency [5]: 296 fold
B7: TY22776 (antibody, V domains shown)
VH: B4 VH
VL: B4 VL with H4S, D8V, A9P, F10Y, P12Y, Y13A, D15A, S16Y

- LogEC50 [4]: -7.32
- Masking efficiency [5]: 144 fold
B10: TY22563 (antibody, IgG1, V domains shown)
VH: B4 VH
VL: B6 VL with I6Y, V7S, H8A, H9Y, S10P, D11A, A14S, F15H, D20Q

- binding result [1]: binds
- binding result [2]: binds
B11: B15700 (Fab, V domains shown)
VH: EVQLVESGGGLVQPGGSLRLSCAASGFTFSGYAIHWVRQAPGKGLEWIGIISPSGGGTKYAQKFQGRVTISRDNSKNTLYLQLNSLRAEDTAVYYCARHPFAYWGQGTLVTVSS
VL: B12 VL with E27Q, F32Y, A38D, H94Q, T96V, V101E
